Target: N-terminal fluorescein labeled ubiquitin E3 ligase WWP2 (FAM-WWP2)
Test: MST

A Kd of 9.6 µM was found for “ubiquitin E2 conjugating enzyme UbcH5c (from UniProt P61077 1-147)” in this work.

Reference: PMC7839251
